Test in all cases: kinetic table (called BLI in paragraph 35); quantity name and unit not printed in the table: KD in M follows from FIG. 12A
One test concerns the target T1, FZD1 CRD, Fc-tagged (human, UniProt Q9UP38 70-250).
T1 construct: domain: CRD; Bought; not shown: Fc tag of the purchased fusion

Another test addresses T2, FZD2 CRD, Fc-tagged (human, UniProt Q14332 24-190).
T2 construct: domain: CRD; Bought; not shown: Fc tag of the purchased fusion

For the next test, the target named is FZD7 CRD, Fc-tagged (human, UniProt O75084 33-185).
In test [1] the target is T3, human LRP6 ECD, Fc-tagged (human, UniProt O75581 20-1370).
T3 construct: extracellular domain; Bought; also called LRP co-receptor; not shown: Fc tag of the purchased fusion
T3 sequence (looked up): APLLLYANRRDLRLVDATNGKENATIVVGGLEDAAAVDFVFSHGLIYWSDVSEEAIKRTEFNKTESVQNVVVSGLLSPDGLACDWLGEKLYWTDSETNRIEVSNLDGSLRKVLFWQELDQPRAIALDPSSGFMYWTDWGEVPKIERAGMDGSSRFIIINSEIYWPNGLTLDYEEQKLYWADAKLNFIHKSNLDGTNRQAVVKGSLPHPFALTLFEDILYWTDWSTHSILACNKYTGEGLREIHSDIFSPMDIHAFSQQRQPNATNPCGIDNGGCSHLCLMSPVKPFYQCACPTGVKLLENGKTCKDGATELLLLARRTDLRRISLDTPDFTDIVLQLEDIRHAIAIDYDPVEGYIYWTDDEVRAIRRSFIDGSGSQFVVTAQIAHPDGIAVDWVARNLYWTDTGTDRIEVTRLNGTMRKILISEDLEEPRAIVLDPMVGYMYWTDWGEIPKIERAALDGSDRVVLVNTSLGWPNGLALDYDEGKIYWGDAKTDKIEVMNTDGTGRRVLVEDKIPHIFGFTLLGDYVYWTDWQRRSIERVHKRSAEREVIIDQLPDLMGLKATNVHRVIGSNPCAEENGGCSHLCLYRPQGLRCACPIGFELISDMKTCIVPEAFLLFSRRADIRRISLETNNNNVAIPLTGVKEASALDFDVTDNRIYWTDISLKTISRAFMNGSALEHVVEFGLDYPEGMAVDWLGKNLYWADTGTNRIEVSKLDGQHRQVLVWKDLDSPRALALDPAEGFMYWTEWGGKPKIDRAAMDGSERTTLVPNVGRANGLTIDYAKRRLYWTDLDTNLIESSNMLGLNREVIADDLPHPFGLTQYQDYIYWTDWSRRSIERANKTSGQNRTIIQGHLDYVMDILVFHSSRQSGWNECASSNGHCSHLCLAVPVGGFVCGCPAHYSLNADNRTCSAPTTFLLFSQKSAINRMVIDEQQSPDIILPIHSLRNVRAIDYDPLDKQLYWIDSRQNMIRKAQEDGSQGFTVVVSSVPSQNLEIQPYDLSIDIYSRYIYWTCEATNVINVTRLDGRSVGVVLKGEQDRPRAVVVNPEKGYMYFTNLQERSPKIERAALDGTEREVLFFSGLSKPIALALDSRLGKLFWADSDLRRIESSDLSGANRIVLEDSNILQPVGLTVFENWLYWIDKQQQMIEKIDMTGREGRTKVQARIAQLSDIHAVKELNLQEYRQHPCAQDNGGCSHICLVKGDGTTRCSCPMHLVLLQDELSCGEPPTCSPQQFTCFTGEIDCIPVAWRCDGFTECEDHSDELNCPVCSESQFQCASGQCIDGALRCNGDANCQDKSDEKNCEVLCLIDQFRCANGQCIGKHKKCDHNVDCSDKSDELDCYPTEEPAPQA

This is an account of results in US20210032352A1 (ANTERA THERAPEUTICS, published 2021).

T1 sequence (Q9UP38 70-250): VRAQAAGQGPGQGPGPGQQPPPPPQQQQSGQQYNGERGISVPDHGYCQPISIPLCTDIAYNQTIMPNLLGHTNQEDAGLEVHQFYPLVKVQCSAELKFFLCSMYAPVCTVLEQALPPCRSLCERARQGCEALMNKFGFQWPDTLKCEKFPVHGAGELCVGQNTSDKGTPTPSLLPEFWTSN

B1: F^P*+P*-L6^1+3 (bispecific antibody)
knob: DIQMTQSPSSLSASVGDRVTITCRASQSVSSAVAWYQQKPGKAPKLLIYSASSLYSGVPSRFSGSRSGTDFTLTISSLQPEDFATYYCQQGVYLFTFGQGTKVEIKGTTAASGSSGGSSSGAEVQLVESGGGLVQPGGSLRLSCAASGFNIGSSSIHWVRQAPGKGLEWVASIYSAFASTSYADSVKGRFTISADTSKNTAYLQMNSLRAEDTAVYYCARYHFPFGFALDYWGQGTLVTVSSLEDKTHTKVEPKTSDKTHTCPPCPAPELLGGPSVFLFPPKPKDTLMISRTPEVTCVVVDVSHEDPEVKFNWYVDGVEVHNAKTKPREEQYNSTYRVVSVLTVLHQDWLNGKEYKCKVSNKALPAPIEKTISKAKGQPREPMVFDLPPSREEMTKNQVSLWCMVKGFYPSDIAVEWESNGQPENNYKTTPPVLDSDGSFFLYSKLTVDKSRWQQGNVFSCSVMHEALHNHYTQKSLSLSPGKSGSETPGTSESATPESGGGEVQLVESGGGLVQPGGSLRLSCAASGFNISYSSIHWVRQAPGKGLEWVAYISSYYGYTYYADSVKGRFTISADTSKNTAYLQMNSLRAEDTAVYYCARAHYFPWAGAMDYWGQGTLVTVSSGGGGSDIQMTQSPSSLSASVGDRVTITCRASQSVSSAVAWYQQKPGKAPKLLIYSASSLYSGVPSRFSGSRSGTDFTLTISSLQPEDFATYYCQQYYWPITFGQGTKVEIK
hole: DIQMTQSPSSLSASVGDRVTITCRASQSVSSAVAWYQQKPGKAPKLLIYSASSLYSGVPSRFSGSRSGTDFTLTISSLQPEDFATYYCQQGVYLFTFGQGTKVEIKGTTAASGSSGGSSSGAEVQLVESGGGLVQPGGSLRLSCAASGFNIGSSSIHWVRQAPGKGLEWVASIYSAFASTSYADSVKGRFTISADTSKNTAYLQMNSLRAEDTAVYYCARYHFPFGFALDYWGQGTLVTVSSLEDKTHTKVEPKSSDKTHNCPPCPAPELLGGPSVFLFPPKPKDTLMISRTPEVTCVVVDVSHEDPEVKFNWYVDGVEVHNAKTKPREEQYNSTYRVVSVLTVLHQDWLNGKEYKCKVSNKALPAPIEKTISKAKGQPREPQVYTLPPIRELMTSNQVSLSCAVKGFYPSDIAVEWESNGQPENNYKTTPPVLDSDGSFFLVSKLTVDKSRWQQGNVFSCSVMHEALHNHYTQKSLSLSPGKSGSETPGTSESATPESGGGEVQLVESGGGLVQPGGSLRLSCAASGFNISSYYIHWVRQAPGKGLEWVASIYSSYGYTSYADSVKGRFTISADTSKNTAYLQMNSLRAEDTAVYYCARTVRGSKKPYFSGWAMDYWGQGTLVTVSSGGGGSDIQMTQSPSSLSASVGDRVTITCRASQSVSSAVAWYQQKPGKAPKLLIYSASSLYSGVPSRFSGSRSGTDFTLTISSLQPEDFATYYCQQYSWGPFTFGQGTKVEIK
As a reminder, the Kd is a measure of binding affinity in units of concentration. The low end stands for tighter binding, the high end for weaker binding. With B1, the Kd with FZD1 CRD, Fc-tagged came out at 0.09 nM; in the test with FZD2 CRD, Fc-tagged it was 0.084 nM; with FZD7 CRD, Fc-tagged, 0.027 nM; in test [1] it was 8.2 nM.

B2: F^P*+P*-L6^1*+3* (bispecific antibody)
chain 1: DIQMTQSPSSLSASVGDRVTITCRASQSVSSAVAWYQQKPGKAPKLLIYSASSLYSGVPSRFSGSRSGTDFTLTISSLQPEDFATYYCQQGVYLFTFGQGTKVEIKGTTAASGSSGGSSSGAEVQLVESGGGLVQPGGSLRLSCAASGFNIGSSSIHWVRQAPGKGLEWVASIYSAFASTSYADSVKGRFTISADTSKNTAYLQMNSLRAEDTAVYYCARYHFPFGFALDYWGQGTLVTVSSLEDKTHTKVEPKTSDKTHTCPPCPAPELLGGPSVFLFPPKPKDTLMISRTPEVTCVVVDVSHEDPEVKFNWYVDGVEVHNAKTKPREEQYNSTYRVVSVLTVLHQDWLNGKEYKCKVSNKALPAPIEKTISKAKGQPREPMVFDLPPSREEMTKNQVSLWCMVKGFYPSDIAVEWESNGQPENNYKTTPPVLDSDGSFFLYSKLTVDKSRWQQGNVFSCSVMHEALHNHYTQKSLSLSPGKSGSETPGTSESATPESGGGDIQMTQSPSSLSASVGDRVTITCRASQSVSSAVAWYQQKPGKAPKLLIYSASSLYSGVPSRFSGSRSGTDFTLTISSLQPEDFATYYCQQYSWGPFTFGQGTKVEIKGTTAASGSSGGSSSGAEVQLVESGGGLVQPGGSLRLSCAASGFNISYSSIHWVRQAPGKGLEWVAYISSYYGYTYYADSVKGRFTISADTSKNTAYLQMNSLRAEDTAVYYCARAHYFPWAGAMDYWGQGTLVTVSS
chain 2: DIQMTQSPSSLSASVGDRVTITCRASQSVSSAVAWYQQKPGKAPKLLIYSASSLYSGVPSRFSGSRSGTDFTLTISSLQPEDFATYYCQQGVYLFTFGQGTKVEIKGTTAASGSSGGSSSGAEVQLVESGGGLVQPGGSLRLSCAASGFNIGSSSIHWVRQAPGKGLEWVASIYSAFASTSYADSVKGRFTISADTSKNTAYLQMNSLRAEDTAVYYCARYHFPFGFALDYWGQGTLVTVSSLEDKTHTKVEPKSSDKTHNCPPCPAPELLGGPSVFLFPPKPKDTLMISRTPEVTCVVVDVSHEDPEVKFNWYVDGVEVHNAKTKPREEQYNSTYRVVSVLTVLHQDWLNGKEYKCKVSNKALPAPIEKTISKAKGQPREPQVYTLPPIRELMTSNQVSLSCAVKGFYPSDIAVEWESNGQPENNYKTTPPVLDSDGSFFLVSKLTVDKSRWQQGNVFSCSVMHEALHNHYTQKSLSLSPGKSGSETPGTSESATPESGGGDIQMTQSPSSLSASVGDRVTITCRASQSVSSAVAWYQQKPGKAPKLLIYSASSLYSGVPSRFSGSRSGTDFTLTISSLQPEDFATYYCQQYYWPITFGQGTKVEIKGTTAASGSSGGSSSGAEVQLVESGGGLVQPGGSLRLSCAASGFNISSYYIHWVRQAPGKGLEWVASIYSSYGYTSYADSVKGRFTISADTSKNTAYLQMNSLRAEDTAVYYCARTVRGSKKPYFSGWAMDYWGQGTLVTVSS
Take B2: the Kd in the test with FZD1 CRD, Fc-tagged was found to be 0.13 nM; with FZD2 CRD, Fc-tagged, 0.15 nM; with FZD7 CRD, Fc-tagged, 0.1 nM; in test [1] it was 9.7 nM.
